Results published in patent publication US20170189513A1.
Where no end group is shown, it is not given here.

Target: HLA-A*24 (human)
Experiment: UV-ligand exchange, b2m ELISA

| Binder | peptide exchange yield [%] |
| --- | --- |
| VYTLDIPVL [… (SEQ ID No 160)] | > 75 |
| QYLQDAYSF [… (SEQ ID No 272)] | > 75 |
| FYSRLLQKF [… (SEQ ID No 203)] | 50 to 75 |
| VFTRVSSFL [… (SEQ ID No 162)] | 50 to 75 |
| EYNQWFTKL [… (SEQ ID No 176)] | 50 to 75 |
| VYEDQVGKF [… (SEQ ID No 170)] | 20 to 49 |
| AYTLIAPNI [… (SEQ ID No 169)] | 50 to 75 |
| TYSVSFPMF [… (SEQ ID No 195)] | > 75 |
| GFFIFNERF [… (SEQ ID No 190)] | 50 to 75 |
| NYINRILKL [… (SEQ ID No 167)] | > 75 |
| RFHPTPLLL [… (SEQ ID No 193)] | > 75 |
| VYVSDIQEL [… (SEQ ID No 288)] | 50 to 75 |
| LFIPSSKLLFL [… (SEQ ID No 171)] | 50 to 75 |
| KYIPYKYVI [… (SEQ ID No 223)] | 50 to 75 |
| LYHDIFSRL [… (SEQ ID No 271)] | > 75 |
| LYIDRPLPYL [… (SEQ ID No 196)] | 50 to 75 |
| RYISDQLFTNF [… (SEQ ID No 278)] | > 75 |
| VFQNFPLLF [… (SEQ ID No 184)] | > 75 |
| LYLDIINLF [… (SEQ ID No 181)] | > 75 |
| VYGFQWRHF [… (SEQ ID No 276)] | > 75 |
| DYTTWTALL [… (SEQ ID No 165)] | > 75 |
| IYTMIYRNL [… (SEQ ID No 210)] | > 75 |
| IYKVGAPTI [… (SEQ ID No 185)] | 50 to 75 |
| HYSQELSLLYL [… (SEQ ID No 158)] | > 75 |
| FFPPTRQMGLLF [… (SEQ ID No 217)] | > 75 |

| Binder | peptide exchange yield [%] |
| --- | --- |
| EFGSLHLEFL [… (SEQ ID No 194)] | < 20 |
| IYDDSFIRPVTF [… (SEQ ID No 180)] | 50 to 75 |
| KYQDILETI [… (SEQ ID No 168)] | > 75 |
| KYTSWYVAL [… (SEQ ID No 228)] | > 75 |
| LYNKGFIYL [… (SEQ ID No 159)] | > 75 |
| IFPQFLYQF [… (SEQ ID No 186)] | > 75 |
| TYTTVPRVAF [… (SEQ ID No 172)] | > 75 |
| QYSSVFKSL [… (SEQ ID No 216)] | > 75 |
| IFIEVFSHF [… (SEQ ID No 178)] | 50 to 75 |
| EYQENFLSF [… (SEQ ID No 206)] | 50 to 75 |
| KFSSFSLFF [… (SEQ ID No 164)] | 50 to 75 |
| LYLKLWNLI [… (SEQ ID No 214)] | 50 to 75 |
| EYPLVINTL [… (SEQ ID No 219)] | 50 to 75 |
| VYRDETGELF [… (SEQ ID No 226)] | 50 to 75 |
| TYIKPISKL [… (SEQ ID No 273)] | 50 to 75 |
| TYLRDQHFL [… (SEQ ID No 187)] | > 75 |
| IFLDYEAGTLSF [… (SEQ ID No 227)] | > 75 |
| YYVESGKLF [… (SEQ ID No 166)] | > 75 |
| EYINQGDLHEF [… (SEQ ID No 275)] | 50 to 75 |
| DYLKGLASF [… (SEQ ID No 163)] | > 75 |
| KFVDSTFYL [… (SEQ ID No 282)] | > 75 |
| KYPVEWAKF [… (SEQ ID No 289)] | > 75 |
| RYLNKAFHI [… (SEQ ID No 284)] | 50 to 75 |
| TYGDAGLTYTF [… (SEQ ID No 283)] | 50 to 75 |
| IYQLDTASI [… (SEQ ID No 182)] | 50 to 75 |

| Binder | peptide exchange yield [%] |
| --- | --- |
| VFKASKITF [… (SEQ ID No 191)] | 50 to 75 |
| RYPDNLKHLYL [… (SEQ ID No 280)] | > 75 |
| VFTSTARAF [… (SEQ ID No 183)] | 50 to 75 |
| YFDKVVTL [YFDKVVTL (SEQ ID No 215)] | 20 to 49 |
| YYLEVGKTLI [… (SEQ ID No 211)] | > 75 |
| KYMVYPQTF [… (SEQ ID No 267)] | > 75 |
| IYLVSIPEL [… (SEQ ID No 161)] | > 75 |
| IYSWILDHF [… (SEQ ID No 173)] | > 75 |
| VYVGGGQIIHL [… (SEQ ID No 174)] | 50 to 75 |
| EYSLFPGQVVI [… (SEQ ID No 197)] | 50 to 75 |
| RYPDNLKHL [… (SEQ ID No 286)] | 20 to 49 |
| WYVNGVNYF [… (SEQ ID No 189)] | 20 to 49 |
| QYLENLEKL [… (SEQ ID No 224)] | 50 to 75 |
| MYDSYWRQF [… (SEQ ID No 179)] | > 75 |
| YYVYIMNHL [… (SEQ ID No 225)] | 50 to 75 |
| TYTQDFNKF [… (SEQ ID No 208)] | 50 to 75 |
| RYSTGLAGNLL [… (SEQ ID No 221)] | 50 to 75 |
| TYIESASEL [… (SEQ ID No 279)] | 50 to 75 |
| RYFKGLVF [RYFKGLVF (SEQ ID No 188)] | 50 to 75 |
| YYEVHKELF [… (SEQ ID No 175)] | > 75 |
| VHIPEVYLI [… (SEQ ID No 205)] | 50 to 75 |
| VYPWLGALL [… (SEQ ID No 177)] | > 75 |
| LYLDKATLI [… (SEQ ID No 198)] | 50 to 75 |
| AYLHSHALI [… (SEQ ID No 274)] | > 75 |
| SYALLTYMI [… (SEQ ID No 192)] | > 75 |
